Consider three proteins from publication PMC12283126, “The Pseudomonas aeruginosa Type VI secretion system toxin Tse8 evolved from a novel N-carbamoylputrescine amidohydrolase” (Biochemical Journal, 2025).

Assay in all cases: ammonia release, indophenol blue, OD640; Michaelis-Menten fit
What all share (details): 50 mM MES-NaOH pH 7.0, 1 mM DTT, 40 °C, 30 min, 10 nM enzyme

Substrate in series [1]: NCCCCNC(N)=O
Type of series: biochemical, Shewanella oneidensis. The text has this: ammonia release, indophenol blue, OD640; Michaelis-Menten fit on Shewanella oneidensis AguY (SoAguY)

Substrate in series [2]: NCCCCNC(N)=O
Type of series: biochemical, Pseudomonas aeruginosa. From the text: ammonia release, indophenol blue, OD640; Michaelis-Menten fit on P. aeruginosa NCPAH/AguB (PaAguB)

Substrate in series [3]: NCCCCNC(N)=O
Type of series: biochemical, Microterricola gilva. From the text: ammonia release, indophenol blue, OD640; Michaelis-Menten fit on Microterricola gilva AguY (MgAguY)

B1: Shewanella oneidensis AguY (SoAguY) (Shewanella oneidensis MR-1) (protein)
chain: MFEVTEVSIAELRAALESGRTTVVELVKSYLARVAAYDGPATETKLNALVVHNPDALKEAEASDARRARGETLSPLDGIPYTAKDSYLVKGLTAASGSPAFKDLVAQYDAFAVERLRAAGAICLGKTNMPPMANGGMQRGHYGRAESPYNAEYLTAPFASGSSNGAGTGTAASYSAFGLAEETWSSGRGPASNNGLCAYTPSRGVISVRGNWPLTPTMDVVVPYTRTMADMLEVLDVIVADDPITRGDLWRLQPWVQIPKASTVRPESYLALAASADTLKGKRFGVPRMYINKDELAGTSENPGIGGPTGQRIHTRQSVIDLWEAARKALEAAGAEVIEVDFPLVSNCEGDRPGAPTVFNRGIVTPQFLHDELWELSGWAFDEFLRANNDPKLNKLEDVVGHLIFPHDLCTLPNREGDLAAGMEEYVNMAKRGLKSFDQIDSIPDGLRGLEKTRKLDLEDWMDGLKLDAVLFPTVADVGPADAHVNPASADIAWSNGVWVANGNLAIRHLGVPTVTVPMGVMADIGMPVGLTFAGRAYDDNNLLKFAGAFESTGNRRIIPPRTPKLGQ
notes: full length, 568 aa, 60,996 Da; purified recombinant, codon-optimised synthetic gene, expressed in E. coli
With B1, in series [1], the Km came out at 740 ± 130 µM, the kcat turned out to be 130 ± 4.5 s⁻¹ and the catalytic efficiency (kcat/Km) was 179000 ± 28600 M⁻¹ s⁻¹.

B2: P. aeruginosa NCPAH/AguB (PaAguB) (Pseudomonas aeruginosa PAO1) (protein)
chain: MTRNVTVAATQMACSWDRPANIARAEKLVRQAAARGAQIILIQELFETPYFCQKPNPDYLQLATTVEENAAIAHFQALARELQVVLPISFFERAGRARFNSIAVIDADGGNLGVYRKSHIPDGPGYHEKYYFNPGDTGFKVWQTRYARIGVGICWDQWFPESARSMALLGAELLFYPTAIGSEPHDASISSRDHWQRVQQGHAGANLMPLVASNRIGREEQDGYDITFYGSSFIADPFGEKVEELNRTEEGILVHTFDLDALERTRSAWGVFRDRRPNLYGPLKTLDGSLES
notes: full length, 292 aa, 32,780 Da; purified recombinant, codon-optimised synthetic gene, expressed in E. coli
Regarding B2, in series [2], the Km is 660 ± 110 µM, the turnover number (kcat) is 54.1 ± 3 s⁻¹ and the kcat/Km was determined as 82500 ± 8800 M⁻¹ s⁻¹.

B3: Microterricola gilva AguY (MgAguY) (Microterricola gilva) (protein)
chain: MTSPTVGKGGIVEAGIDELAAALAAGETSAVALLDAYLARIRAFDAPGTATALNAYVVMNPDARADAEASDARRARGESRGPLDGIPYSAKDSYLAAGLTAAAGSPAFTALIAQQDAFTIERLRTAGAVLIGLTNMPPMANGGMQRGAYGRAESPYNAAWLTAAFGSGSSNGSGTATAASMCAFGLGEETWSSGRAPASNNALCAYTPSRGIISMRGNWPLVPTMDVVVPHTRTMADLLRVLDVIVAEDGDTRGDFWRSQPWLEIPRVDEHRPASYPSLAPTDLAAAQATLRGTRLGVPRMYINGDQDAGTGEPGGIGGPTGQRIETRASVIELWEAARRDLEAAGATVVEVDFPLVSNYEGDRAGAPTITNRGLVSPEFLHTELNDLAAWAWNDFLEMNGDPRLSSLAAVDGERIFPAPPGSLPDRYQGFDDDIADLPRIAAERHWASVEEIEELADGIRGLEHTRAIDFDAWMASNRLDAVVFPAVADVGPADMDVNEASADAGWRNGVWVANGNLVIRHFGIPTVTVPMGLMRDIRMPVGLTFAGLPYDDVALLRLAAAFERTAERRVAPPLSAPPARAHR
notes: full length, 584 aa, 61,738 Da; purified recombinant, codon-optimised synthetic gene, expressed in E. coli; genome has a second AguY paralog
Regarding B3, in series [3], the Km was determined as 70 ± 300 µM, the turnover number (kcat) turned out to be 39 ± 1.5 s⁻¹ and the specificity constant (kcat/Km) was 642000 ± 251000 M⁻¹ s⁻¹.
